In paper PMC4577081 (2015):

Biological target: human CD47/his fusion protein (extracellular domain of human CD47 fused to His-tag) (human)
Test: SPR; monomeric hCD47

- Kd: 19.9 nM
B1: mouse anti-human CD47 monoclonal antibody 5F9 (antibody, V domains shown)
VH: QVQLQQPGAELVKPGASVMMSCKASGYTFTNYNMHWVKQTPGQGLEWIGTIYPGNDDTSYNQKFKDKATLTADKSSSAAYMQLSSLTSEDSAVYYCARGGYRAMDYWGQGTSVTVSS
VL: DVLMTQTPLSLPVSLGDQASISCRSSQSIVYSNGNTYLGWYLQKPGQSPKLLIYKVSNRFSGVPDRFSGSGSGTDFTLKISRVEAEDLGVYHCFQGSHVPYTFGGGTKVEIK
modifications: biotin-labeled in the competition ELISA (site not stated)
